In paper PMC4597128:

Biological target: Helicobacter pylori HP0231 (DsbK) (Helicobacter pylori)
Test: SEC; purified His6-tagged proteins on a calibrated ENrich SEC70 column (Bio-Rad), absorbance at 280 nm; calibrated with Gel Filtration Standard (Bio-Rad)

stoichiometry N: 2
Substance: Helicobacter pylori HP0231 (DsbK) (enzyme)
